Data: PMC6972956

Assays:
[1] = target: recombinant integrin αIIbβ3 stably expressed on K562 cells (UniProt P08514); experiment: flow cytometry on cells; mAb PT-25-activated αIIbβ3-K562 cells incubated 30 min at RT with serially diluted unlabeled Hr10, hFN10 or eptifibatide in the presence of 0.5 µM Alexa647-conjugated FB; buffer A
[2] = target: recombinant integrin αVβ3 stably expressed on K562 cells (UniProt P06756); experiment: flow cytometry on cells; displacement of Alexa647-labeled hFN10 from αVβ3-K562 cells by unlabeled hFN10 or Hr10; buffer A (1 mM MgCl2, 1 mM CaCl2), RT
Sequence of UniProt P06756 (P06756 31-1048, chain 1 of 2): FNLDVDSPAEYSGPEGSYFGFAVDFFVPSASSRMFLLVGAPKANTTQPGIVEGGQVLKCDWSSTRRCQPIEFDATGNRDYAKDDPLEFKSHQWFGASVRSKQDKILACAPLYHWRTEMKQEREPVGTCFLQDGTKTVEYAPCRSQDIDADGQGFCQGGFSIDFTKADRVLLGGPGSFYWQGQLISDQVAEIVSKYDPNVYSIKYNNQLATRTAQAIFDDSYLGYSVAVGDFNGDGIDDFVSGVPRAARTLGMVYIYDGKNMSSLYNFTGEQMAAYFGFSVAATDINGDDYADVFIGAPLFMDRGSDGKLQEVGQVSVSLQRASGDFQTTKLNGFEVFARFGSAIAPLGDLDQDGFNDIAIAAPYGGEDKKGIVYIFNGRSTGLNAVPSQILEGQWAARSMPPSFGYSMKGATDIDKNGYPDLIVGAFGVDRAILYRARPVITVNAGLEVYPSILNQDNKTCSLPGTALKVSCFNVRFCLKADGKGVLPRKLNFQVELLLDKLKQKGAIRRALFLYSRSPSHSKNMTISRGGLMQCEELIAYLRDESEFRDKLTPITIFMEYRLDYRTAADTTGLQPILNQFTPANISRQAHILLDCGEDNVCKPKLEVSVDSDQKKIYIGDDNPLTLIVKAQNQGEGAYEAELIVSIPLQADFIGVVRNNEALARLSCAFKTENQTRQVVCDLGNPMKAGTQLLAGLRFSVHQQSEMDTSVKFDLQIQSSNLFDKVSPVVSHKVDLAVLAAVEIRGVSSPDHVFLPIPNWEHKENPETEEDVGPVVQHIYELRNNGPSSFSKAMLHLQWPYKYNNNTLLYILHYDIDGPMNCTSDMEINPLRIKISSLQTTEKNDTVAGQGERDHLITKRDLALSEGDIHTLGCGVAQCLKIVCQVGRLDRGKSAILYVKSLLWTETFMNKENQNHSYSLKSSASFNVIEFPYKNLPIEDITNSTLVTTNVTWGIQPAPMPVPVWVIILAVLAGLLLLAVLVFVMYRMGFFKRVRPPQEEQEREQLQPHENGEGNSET
Sequence of UniProt P06756 (P05106 27-788, chain 2 of 2, further chain): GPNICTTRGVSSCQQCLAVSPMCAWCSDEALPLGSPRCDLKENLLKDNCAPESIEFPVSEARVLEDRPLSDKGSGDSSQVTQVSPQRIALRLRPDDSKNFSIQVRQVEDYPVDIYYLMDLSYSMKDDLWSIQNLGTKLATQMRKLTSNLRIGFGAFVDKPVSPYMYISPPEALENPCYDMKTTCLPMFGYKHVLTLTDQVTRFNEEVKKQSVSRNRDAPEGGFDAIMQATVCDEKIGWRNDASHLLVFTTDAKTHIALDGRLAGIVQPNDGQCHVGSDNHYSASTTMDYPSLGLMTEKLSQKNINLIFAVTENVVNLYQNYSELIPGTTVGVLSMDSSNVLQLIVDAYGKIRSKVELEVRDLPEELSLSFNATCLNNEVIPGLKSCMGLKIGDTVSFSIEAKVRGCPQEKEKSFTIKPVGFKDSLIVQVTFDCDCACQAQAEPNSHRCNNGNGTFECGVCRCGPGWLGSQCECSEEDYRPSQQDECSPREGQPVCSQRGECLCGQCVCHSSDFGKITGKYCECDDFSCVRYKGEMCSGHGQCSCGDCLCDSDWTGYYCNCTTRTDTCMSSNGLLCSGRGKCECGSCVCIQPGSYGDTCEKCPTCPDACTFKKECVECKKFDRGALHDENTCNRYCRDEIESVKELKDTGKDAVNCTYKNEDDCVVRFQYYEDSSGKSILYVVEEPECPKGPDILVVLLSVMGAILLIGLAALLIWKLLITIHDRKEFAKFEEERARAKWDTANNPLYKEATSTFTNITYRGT

| IC50 [1] [nM] | IC50 [2] [nM] | Substance |
| --- | --- | --- |
| 73.2 |  | eptifibatide (peptide) |
| 474 | 3.6 | hFN10 (from UniProt P02751 1539-1631) (designed binder) |
